2 substances from article PMC8564508 can be followed below.

Test [1] deals with LH1-RC complex of Rba. sphaeroides IL106 (wild type) (Rhodobacter sphaeroides f. sp. denitrificans strain IL106) (UniProt Q3J1A4). Nature of the test: sucrose density gradient centrifugation; supernatant of chromatophores solubilised with 1.0% w/v DDM on a stepwise sucrose gradient (10-40% w/v), 20 mM Tris-HCl pH 8.0, 0.05% w/v DDM, 4 °C, 150,000 x g, 6 h; ratio from volumes and absorption of the dimeric and monomeric layers.

Test [2] has as its target LH1-RC complex of the protein-U-deleted strain IL106-ΔU (Rhodobacter sphaeroides f. sp. denitrificans strain IL106) (UniProt Q3J1A4). The test is described as above.

A word on the stoichiometry N: it is a count of units in the complex or per binding partner. As to “LH1-RC complex of Rba. sphaeroides IL106 (wild type) (from UniProt Q3J1A4 1-58; Q3J1A3 1-49; P0C0Y8 1-282; P0C0Y9 1-308; P0C0Y7 1-260; P13402 1-82)”, in test [1], the ratio of dimeric to monomeric LH1-RC is 0.44 and the stoichiometry N was determined as 2.
On to “LH1-RC complex of the protein-U-deleted strain IL106-ΔU (from UniProt Q3J1A4 1-58; Q3J1A3 1-49; P0C0Y8 1-282; P0C0Y9 1-308; P0C0Y7 1-260; P13402 1-82)”, for which, in test [2], the ratio of dimeric to monomeric LH1-RC was 0.15 and the stoichiometry N amounted to 2.
